From US20120202747A1 (TORU MIYAZAKI, published 2012)

B1: recombinant mouse AIM protein (other)
chain: ESPTKVQLVGGAHRCEGRVEVEHNGQWGTVCDDGWDRRDVAVVCRELNCGAVIQTPRGASYQPPASEQRVLIQGVDCNGTEDTLAQCELNYYVFDCSHEEDAGAQCENPDSDLLFIPEDVRLVDGPGHCQGRVEVLHQSQWSTVCKAGWNLQVSKVVCRQLGCGRALLTYGSCNKNTQGKGPIWMGKMSCSGQEANLRSCLLSRLENNCTHGEDTWMECEDPFELKLVGGDTPCSGRLEVLHKGSWGSVCDDNWGEKEDQVVCKQLGCGKSLHPSPKTRKIYGPGAGRIWLDDVNCSGKEQSLEFCRHRLWGYHDCTHKEDVEVICTDFDV
notes: no cleavage site is stated; also called Mouse rAIM; rAIM
B2: mouse AIM (apoptosis inhibitor of macrophage) fused with an HA-tag (other)
chain: B1 chain
notes: also called HA-AIM; AIM tagged with HA; not shown: HA tag

Legend:
[1] = molecular target: T1, mouse CD36 fused with a FLAG-tag at its C terminus, overexpressed on HEK293 cells (mouse, UniProt Q08857 1-472); test: confocal microscopy of HEK293 cells overexpressing mouse CD36-FLAG, cultured with mouse AIM for 3 hours
T1 construct: whole, on cells; also called CD36-FLAG; not shown: C-terminal FLAG tag
Description: CD36 is a twice-transmembrane-type molecule, is expressed on adipocytes and macrophages, and is involved in intracellular internalization of many molecules including fatty acids, LDL, and the like. Thus, HEK293 cells in which mouse CD36 fused with a FLAG-tag at its C terminus was overexpressed were produced, and the cells were cultured with mouse AIM for 3 hours. Subsequently, the cells were collected, stained using an anti-AIM antibody and an anti-CD36 antibody, and observed under a confocal microscope.

[2] = molecular target: T2, endogenous FAS (fatty acid synthase) in mouse adipocytes (mouse, UniProt P19096 1-2504); test: precipitation of endocytosed HA-tagged rAIM from lysates of mouse adipose tissue with an anti-HA antibody, Western blot for FAS
T2 construct: also called cytosolic FAS
Description: Further, the endocytosed rAIM was precipitated using lysates derived from those adipose tissues to examine whether endogenous FAS was co-precipitated or not. That is, the presence of FAS in the precipitate was analyzed by Western blotting using HA-tagged rAIM and an anti-HA antibody.

T1 sequence (Q08857 whole entry, the tested form may be a part): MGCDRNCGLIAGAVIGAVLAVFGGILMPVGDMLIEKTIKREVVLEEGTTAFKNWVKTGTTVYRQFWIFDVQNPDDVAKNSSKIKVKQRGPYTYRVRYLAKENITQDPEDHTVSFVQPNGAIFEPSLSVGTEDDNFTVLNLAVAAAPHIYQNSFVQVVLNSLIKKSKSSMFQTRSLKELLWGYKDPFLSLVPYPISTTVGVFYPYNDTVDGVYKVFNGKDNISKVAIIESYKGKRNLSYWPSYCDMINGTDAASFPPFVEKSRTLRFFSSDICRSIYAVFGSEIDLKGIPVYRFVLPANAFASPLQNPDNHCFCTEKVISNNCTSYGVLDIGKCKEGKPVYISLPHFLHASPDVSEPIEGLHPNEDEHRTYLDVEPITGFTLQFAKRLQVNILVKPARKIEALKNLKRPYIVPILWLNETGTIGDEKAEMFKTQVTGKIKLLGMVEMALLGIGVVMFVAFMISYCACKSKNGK
T2 sequence (P19096 whole entry): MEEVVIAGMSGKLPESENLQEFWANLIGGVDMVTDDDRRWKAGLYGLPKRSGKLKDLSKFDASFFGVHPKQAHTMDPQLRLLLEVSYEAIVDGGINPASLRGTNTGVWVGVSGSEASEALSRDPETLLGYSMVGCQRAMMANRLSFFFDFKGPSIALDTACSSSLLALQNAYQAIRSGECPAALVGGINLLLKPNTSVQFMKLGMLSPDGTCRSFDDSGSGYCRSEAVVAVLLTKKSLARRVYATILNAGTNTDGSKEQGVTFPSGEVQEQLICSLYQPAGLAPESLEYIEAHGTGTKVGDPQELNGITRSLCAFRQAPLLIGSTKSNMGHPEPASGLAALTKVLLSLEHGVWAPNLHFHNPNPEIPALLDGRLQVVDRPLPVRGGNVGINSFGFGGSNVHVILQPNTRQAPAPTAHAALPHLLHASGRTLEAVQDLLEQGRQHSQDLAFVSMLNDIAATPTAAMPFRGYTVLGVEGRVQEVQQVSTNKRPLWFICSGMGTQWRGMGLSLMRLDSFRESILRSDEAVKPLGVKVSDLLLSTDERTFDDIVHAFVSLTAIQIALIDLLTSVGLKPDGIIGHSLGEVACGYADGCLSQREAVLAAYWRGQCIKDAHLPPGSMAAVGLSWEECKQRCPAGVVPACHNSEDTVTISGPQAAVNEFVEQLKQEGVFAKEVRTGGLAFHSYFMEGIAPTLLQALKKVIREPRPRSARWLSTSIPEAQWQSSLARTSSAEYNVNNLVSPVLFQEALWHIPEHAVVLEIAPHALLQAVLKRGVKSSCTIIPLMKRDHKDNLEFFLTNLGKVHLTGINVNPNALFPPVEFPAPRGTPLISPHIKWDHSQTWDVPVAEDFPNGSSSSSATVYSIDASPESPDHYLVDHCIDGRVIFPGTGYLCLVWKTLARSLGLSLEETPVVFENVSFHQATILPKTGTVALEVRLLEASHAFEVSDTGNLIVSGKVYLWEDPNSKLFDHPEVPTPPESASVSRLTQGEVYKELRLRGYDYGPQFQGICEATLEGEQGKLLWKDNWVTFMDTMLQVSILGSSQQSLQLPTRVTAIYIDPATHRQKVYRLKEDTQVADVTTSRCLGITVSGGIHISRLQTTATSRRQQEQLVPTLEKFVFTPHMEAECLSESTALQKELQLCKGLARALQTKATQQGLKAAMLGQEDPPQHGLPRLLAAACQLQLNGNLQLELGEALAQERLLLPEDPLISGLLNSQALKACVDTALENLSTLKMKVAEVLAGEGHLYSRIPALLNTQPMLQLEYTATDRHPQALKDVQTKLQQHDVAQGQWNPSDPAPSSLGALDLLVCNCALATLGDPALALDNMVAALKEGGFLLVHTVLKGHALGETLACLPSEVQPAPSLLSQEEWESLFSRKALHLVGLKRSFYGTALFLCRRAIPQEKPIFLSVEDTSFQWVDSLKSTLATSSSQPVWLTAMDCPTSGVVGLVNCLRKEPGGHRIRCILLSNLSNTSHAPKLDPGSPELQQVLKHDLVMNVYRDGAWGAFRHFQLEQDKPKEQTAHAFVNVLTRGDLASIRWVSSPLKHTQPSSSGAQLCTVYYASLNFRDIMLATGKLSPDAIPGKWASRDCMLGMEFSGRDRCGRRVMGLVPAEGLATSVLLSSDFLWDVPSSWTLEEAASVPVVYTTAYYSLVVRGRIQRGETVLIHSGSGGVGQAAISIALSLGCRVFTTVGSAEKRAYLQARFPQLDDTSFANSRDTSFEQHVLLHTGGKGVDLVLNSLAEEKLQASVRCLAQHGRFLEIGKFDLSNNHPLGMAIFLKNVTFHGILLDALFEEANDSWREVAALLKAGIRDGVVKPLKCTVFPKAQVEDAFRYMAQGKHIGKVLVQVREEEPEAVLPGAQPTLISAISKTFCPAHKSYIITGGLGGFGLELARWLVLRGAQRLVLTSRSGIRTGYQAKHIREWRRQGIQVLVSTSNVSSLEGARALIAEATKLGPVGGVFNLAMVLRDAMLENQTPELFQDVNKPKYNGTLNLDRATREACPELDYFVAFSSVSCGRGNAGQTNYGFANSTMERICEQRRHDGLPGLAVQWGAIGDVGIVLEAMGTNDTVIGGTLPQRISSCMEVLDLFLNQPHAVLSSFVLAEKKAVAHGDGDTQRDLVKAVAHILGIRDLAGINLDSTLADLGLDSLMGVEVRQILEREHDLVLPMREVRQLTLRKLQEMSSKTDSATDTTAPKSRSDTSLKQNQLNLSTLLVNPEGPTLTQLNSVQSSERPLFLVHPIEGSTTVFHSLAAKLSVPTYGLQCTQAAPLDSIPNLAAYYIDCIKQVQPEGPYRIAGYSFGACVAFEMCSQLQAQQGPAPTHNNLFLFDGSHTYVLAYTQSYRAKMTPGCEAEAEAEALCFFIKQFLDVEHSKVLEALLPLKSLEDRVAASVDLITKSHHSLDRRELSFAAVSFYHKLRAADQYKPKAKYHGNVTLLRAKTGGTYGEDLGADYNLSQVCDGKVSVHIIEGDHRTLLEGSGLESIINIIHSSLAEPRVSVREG

Binder	binding result [1]	binding result [2]
B1	binds	–
B2	–	binds
